Tested on: MS2 coat protein
Experiment: apparent KD of MS2 coat protein; designed switch direction (-1 OFF switch, 1 ON switch): -1; higher = weaker reporter binding
In short: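 Apparent KD, taken as the median over clusters for each design, was obtained by curve-fitting normalised cluster fluorescence. Designed RNA switches had been transcribed on Illumina chips by stalled E. coli RNA polymerase and titrated with SNAP-549-labelled MS2 coat protein, doubling from 0.7 or 1.5 nM to 3 µM.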

[1] = Eterna round: R95, input ligand: microRNA oligo, concentration not stated
[2] = Eterna round: R95, input ligand: FMN 200 uM
[3] = Eterna round: R95, input ligand: none
[4] = input ligand: microRNA oligo, concentration not stated

Sequence	apparent KD of MS2 coat protein (input ligand: FMN 200 uM) [nM]	apparent KD of MS2 coat protein (input ligand: none) [nM]	apparent KD of MS2 coat protein [1] [nM]	apparent KD of MS2 coat protein [2] [nM]	apparent KD of MS2 coat protein [3] [nM]	apparent KD of MS2 coat protein [4] [nM]
GGAUCGAGUGUGAGGAUAUACCUAUGGAUACAUAGGUAGAAGGCACAUGAGGAUCACCCAUGUUCCAACGGUCC [Eli bmx4 4.11] (Eterna round: R97, puzzle: Brourd's mod of Exclusion 4)	817	108	–	–	–	–
GGAUCUUGGGUCAGGAUAUGCUGAUAUUUUUGUCAGCAGAAGGGACAUGAGGAUCACCCAUGUGCUUGGUUUUG [Magic-16] (puzzle: Brourd's mod of Exclusion 4)	–	–	12.6	–	–	–
GGAUGGCGAGGAUAUACAUGAGGAUCACCCAUGUGAGAGAAAUAAGUGAGGAAGAAAAGUAGAAGGCGCAGACG [Mat - Exclusion 3 - Mod of Salish D45] (puzzle: Exclusion 3)	–	–	55.7	11.1	53.1	–
GGAUUACAUGAGGAUCACCCAUGUCAGGAUAUACGAUCAUAUGCCGAAAGGCAUAUGAGUAGAAGGGACAAUAU [AK-MS2ROC-r4-exclusion1-2.0] (Eterna round: R97, puzzle: Exclusion 1)	46.2	36.1	–	–	–	–
GGAUUCCAGUGAGGAUAUCCAAAUAAAAGCCAUGGAGAAGGCACAUGAGGAUCACCCAUGUAGGGCAAUAGCAGCGACCACUGC [Raqube] (Eterna round: R96, puzzle: Exclusion NG 1)	59.4	29.3	–	–	–	27.6
GGCACACAUGAGGAUCACCCAUGUCAGGAUAUGUGGCGAUCGUCGAAAGACGAUAGCCACAGAAGGGACAGGCC [Eli x1 4.25] (Eterna round: R97, puzzle: Exclusion 1)	68.7	49.8	–	–	–	–
GGCACACAUGAGGAUCACCCAUGUGAGGAUAUGAGGCGAUCGUCGAAAGACGAUAGCCUCAGAAGGCACAUGCC [Eli x1 4.10] (Eterna round: R97, puzzle: Exclusion 1)	42.9	16	–	–	–	–
GGCACACAUGUAGGAUAUCUGCACGUGUAGUGCAGAGAAGGACAUGAGGAUCACCCAUGUAAUUAAGAUCAAUUAUUAAGUGCC [ENG1/3-A3] (Eterna round: R96, puzzle: Exclusion NG 1)	481	58.9	–	–	–	48.6
GGCAUGUAAGGAUAUGCCACUGAGUGCUUUGCGCUCAGGAAGCAGAAGGUACAUGAGGAUCACCCAUGUGAUAA [jl-ex4-4.52 ViennaUCT mod] (Eterna round: R97, puzzle: Exclusion 4)	109	714	–	–	–	–
GGCCCGCGCGGGCCCGGGCCCGGGACAUGAGGAUCACCCAUGUAGGAUAUCCGGCCCGCCGGGCCGGAGAAGGACAUGGGCCCG [-48.9, -45.2 kcal, 17% A] (Eterna round: R96, puzzle: Exclusion NG 3)	34.1	16.9	–	–	–	11.1
GGCCCUAAGGUCAGAUCCACAAGCUUUUUGCUCGUUUUAACAUGAGGAUCACCCAUGUCUAGUGGAUUUGAUCCUCU [Sensor v3, turn-off variant 2 (MOD of Indiso v.8)] (puzzle: Sensor v3, turn-off variant 2)	–	–	9.69	27.9	33.5	–
GGCCGAGAACAGCUCCACGCUACCCUCGGCCGCUCAUUUACAUGAGGAUCACCCAUGUUUUUUGCUUGUCUUGUUUC [Xeisrarabi] (puzzle: Sensor v3, turn-off variant 2)	–	–	94.1	22.1	24.1	–
GGCCUGUUAGGAUAUUAGUAGUAGUCAGAAAAGACUAUUACUGAGAAGGAACAUGAGGAUCACCCAUGUUGGCC [Mat - Exclusion 4 - Eli Mod - D39] (Eterna round: R97, puzzle: Exclusion 4)	17.2	17.4	–	–	–	–
GGCGACCACCUCGUGCACUACAUGAGGAUCACCCAUGUUUUUCGCUCGUCUUAUGCGCCAACCUCCCAAACACUAAG [Gelaesxe] (puzzle: Sensor v3, turn-off variant 1)	–	–	103	34.6	35.4	–
GGCGGUGCAGGAUAUUGAAAACUACACAUGAGGAUCACCCAUGUUCCUCACCGGUACAAGCAAGAAGGGCGGUGCA [Erxegetiis] (puzzle: Exclusion 5)	–	–	19.4	18.9	18.3	–
GGCGUGUAUUAGGAUAUUGGAGGGAGGGAGGGCUAAGAAGGAGUAACAUGAGGAUCACCCAUGUAGAGGAAGGG [RHig 2] (Eterna round: R97, puzzle: Exclusion 6)	63.1	95.3	–	–	–	–
GGGAAGAACCAACAAGCAAACAUGAGGAUCACCCAUGUAGUAAGAGAAAUUGAGGUGAUUCAGAGAGCUCGACUUAU [AK-miRNA-r3-7.1] (Eterna round: R97, puzzle: Sensor, turn-off variant 1)	367	359	–	–	–	–

Sequence	apparent KD of MS2 coat protein (input ligand: FMN 200 uM) [nM]	apparent KD of MS2 coat protein (input ligand: none) [nM]	apparent KD of MS2 coat protein [1] [nM]	apparent KD of MS2 coat protein [2] [nM]	apparent KD of MS2 coat protein [3] [nM]	apparent KD of MS2 coat protein [4] [nM]
GGGAAGAACCAACAAGUUAACAUGAGGAUCACCCAUGUUGACUUCAUGUGCACGCAAAGCGUGCAAGCUCGUCUUAU [AK-miRNA-r3-15] (Eterna round: R97, puzzle: Sensor, turn-off variant 1)	17.9	17.2	–	–	–	–
GGGACACAUGAGGAUCACCCAUGUGAGGAUAUGUUAGUUUCGGCCAAAGCCGAAAUUAACAGAAGGCACAUACC [JR_Exclusion1_Sub020] (puzzle: Exclusion 1)	–	–	35.7	–	–	–
GGGAUGUCAGGAUAUACAUGAGGAUCACCCAUGUAGAGAUAAGAUAGGGAAAGAGUAGGUAGAAGGGACGAGAG [JR_Exclu3_Sub044] (puzzle: Exclusion 3)	–	–	19.9	22	24.5	–
GGGAUGUGAGGAUAUCGAGGUGCAAAGCACCUAAAAGAAAACGAGAAGGCACAUGAGGAUCACCCAUGUAAUAC [Xeinle] (puzzle: Exclusion 4)	–	–	26	105	26	–
GGGCCCGGAGGAUAUACAAUGCGCGCGCGAAAGUGUGUGUUACAUGAGGAUCACCCAUGUAGAAGGCCGGGCCC [-39.9, -36.7 kcal A 24%, 6,0] (Eterna round: R97, puzzle: Exclusion 2)	39.4	16.7	–	–	–	–
GGGCCCGGAGGAUAUACAUGAGGAUCACCCAUGUAGGGCCCGGGUAUUUUUGGGCCCUGUAGAAGGCCGGGCCC [-41.6, -38.7 kcal, A 19%, 5c,0] (Eterna round: R97, puzzle: Exclusion 3)	13	12.6	–	–	–	–
GGGUGACAUGAGGAUCACCCAUGUCAGGAUAUGAUUCUGCUUGGGAAACCGAGUAGAAUCAGAAGGGACAUCCC (Eterna round: R97, puzzle: Exclusion 1)	324	54.3	–	–	–	–
GGGUGACAUGAGGAUCACCCAUGUCAGGAUAUUGAUCGUGAUCGGAAAUGAUCGUGAUCGAGAAGGGACUGCCC [-27.4, -26.4 kcal, A 27% sequence 2] (Eterna round: R97, puzzle: Exclusion 1)	224	52	–	–	–	–
GGGUUACAUGAGGAUCACCCAUGUGAGGAUAUGAUACUAUGUACUUCGGUACAUAGUAUCAGAAGGCACAUCCC [Ex1-3: 20] (puzzle: Exclusion 1)	–	–	31.4	–	–	–
GGUACUAACACGAGAGUGUUAGUACUAUAAGCUUGUGUUACAUGAGGAUCACCCAUGUCCUCAUAGGCUCGUCUUAA [Mat - Sensor v3 - Turn-off var 2 - D81] (puzzle: Sensor v3, turn-off variant 2)	–	–	61	82.4	82.4	–
GGUACUAUCACCUGAGUGGUAGUGCAAUAAGCUUGUGAUACAUGAGGAUCACCCAUGUCCUCAUUUGCUCGUCUUAU [JL-sv3-2.26 JL mod] (puzzle: Sensor v3, turn-off variant 2)	–	–	516	533	839	–
GGUACUCAAAGAGUACCAAUACGAACAUGAGGAUCACCCAUGUAGGAUAUGCUACUCAAAGAGUAGCAGAAGGAUAUGAACCUU [Far Half Aptamer v9] (Eterna round: R96, puzzle: Exclusion NG 3)	22.5	23.8	–	–	–	15.5
GGUACUCAAAGAGUACCAAUACGAACAUGAGGAUCACCCAUGUAGGAUAUGCUACUCAAAGAGUAGCAGAAGGAUAUGAGCCUC [Far Half Aptamer v11] (Eterna round: R96, puzzle: Exclusion NG 3)	663	334	–	–	–	319
GGUACUCAUGUGAGGAUAUGCUCGAAUGCAGACGAGCAGAAGGUACAUGAGGAUCACCCAUGUACCAUAAAGUA [Eternabot (Original) Solution 1] (Eterna round: R97, puzzle: Brourd's mod of Exclusion 4)	23.6	13.1	–	–	–	–
GGUAGUAUGAGUAGUCCUCAUUGAAGAGAUUAGUAAGAAACAUGAGGAUCACCCAUGUUAGAACAAGCUUUUGCUCA [JR_Sv3TOV2_Sub004] (puzzle: Sensor v3, turn-off variant 2)	–	–	45.7	113	142	–
GGUCAAGAACAGCUCCGCGCUGCCCUUGACCGCUCAUUUACAUGAGGAUCACCCAUGUUUUUUGCUUGUCUUGUUUC [Bebiesgebe] (puzzle: Sensor v3, turn-off variant 2)	–	–	127	20	22.6	–

From the supplement of paper PMC9170038
